# Where two headings read alike, the source gives them in different places. Positions of bridges follow the written chain, without caps; N, C: chain ends. No end group written: not given here.
# B1: b4.6: phage-displayed human anti-Aβ42 scFv, SEQ ID NO:12, HCDR3 SHYWDS (protein)
# scFv: QVQLQESGPGLVKPSETLSLTCSVSGGSVSSGNYYWTWIRQPPGKGLEWIGYIYSSGSTSYNPSLMSRVTISLDMSKNQFSLRLTSVTAADTAVYYCARSHYWDSWSPGTLVTVSSGGGGSGGGGSGGGGSDIVMTQSPSSMSASVGDTVTIACRASRDIRNDLAWYQQKPGKAPKLLIYAASRLQSGVPSRFSGSGSFTDFTLTIQLCLQPDDFATYYCLQDSDYPLTFGGGTKLEIKR
# What was measured:
# [1] = tested on: rat cultured hippocampal neurons
# Description: (§2) Primary cultures of hippocampal neurons were prepared from 17-18 day gestational Wistar rat embryos as described previously (Brewer et al., 1993) with some modifications (Massieu et al., 2003). Briefly, after dissection, 10-12 hippocampi were chopped into 300-μm cubes, incubated in a 0.25% trypsin solution, and dispersed by trituration in a 0.08% DNAase and 0.52% soybean trypsin inhibitor containing solution. Cells were suspended in Neurobasal culture medium (GIBCO/Life technologies, Rockville Md., USA) (Brewer et al. 1993) supplemented with B27 (Minus AO GIBCO/life technologies, Rockville, Md., USA), 0.5 mM L-glutamine, 20 μg/ml gentamicin, and 0.2 mM glutamate, and plated at a density of 260-290×10^3/cm^2 in Costar 48-well plates (Cambridge, Mass., USA), precoated with poly-L-lysine (5 μg/ml). Cells were cultured for 6 days in vitro (DIV) at 37° C. in a humidified 5% CO2/95% air atmosphere. Glucose (5 mM) and cytosine arabinoside (10 μM) were added to cultures 4 days after plating.
# (§3) The effect of individual treatments of the different peptides on cell viability was also tested. Aβ42 was pre-incubated at 37° C. during 48 h to promote its aggregation and increase neurotoxicity. Cell viability was assessed by the MTT (3-(4,5-dimethylthiazol-2-yl)-2,5-diphenyltetrazolium bromide) dye reduction assay (Mosmann, 1983) as previously described (Garcia and Massieu, 2001). The assay is based on the ability of living mitochondria to convert MTT into insoluble formazan by active dehydrogenases.
# (§4) In brief, 72 h after exposure to Aβ42, cell cultures were incubated with MTT (150 μM) during a 1 h period at 37° C. in a 5% CO2/95% O2-containing atmosphere. The medium was aspirated, and the precipitated formazan was solubilized with 0.480 ml isopropanol. After solubilization, isopropanol was transferred to eppendorf tubes, centrifuged (18 000 rpm for 30 s) and the optical density in the supernatant measured at 570 nm in a spectrofluorometer (Beckman DU-640). Cell damage was expressed as percent reduction in mitochondrial activity relative to control cultures. Data were expressed as means±SE (standard error) of 4 independent experiments.
# Aβ42 [2] = biological target: T1, Aβ42 (Homo sapiens, UniProt P05067); assay: ELISA using CDR-based synthetic peptides: biotinylated Aβ42 added to peptide-coated plates; type: binding
# Description: ELISA analysis was carried out using MaxiSorp microtiter plates coated overnight with synthetic peptide at a concentration of 10 μg/ml in carbonate buffer. After washing, plates were blocked with PBS/2% BSA for 1 h at 37° C. After incubation and a washing step, biotinylated Aβ42 was added to each well. Plates were again incubated for 1 h at 37° C., washed, and reacted with an avidin-peroxidase conjugate diluted 1:500 (Pharmingen, San Jose, Calif., USA) followed by the ABTS single solution (Zymed) as described above.
# [3] = tested on: rat cultured hippocampal neurons; assay: Neuroprotection assay, Aβ42-induced neurotoxicity, MTT reduction
# Description: as §2, §3, §4
# [4] = tested on: primary cultures of hippocampal neurons and mixed cortical neurons; details: cited from earlier work
# Aβ42 [5] = biological target: T1, Aβ42; assay: Competition ELISA: binding of biotinylated Aβ42 to immobilized cyclic C44; details: competitor pre-incubated with biotinylated Aβ42 overnight at 4° C., N44 linear
# Description: For competition ELISA, cyclic C44 and linear N44 were diluted in PBS/1% BSA and incubated with biotinylated Aβ42 overnight at 4° C. prior to addition to plates coated with cyclic C44.
# Dutch (E22Q) mutant Aβ42 = biological target: T2, Dutch (E22Q) mutant Aβ42 (Homo sapiens, UniProt P05067, E693Q); assay: ELISA binding of phage-displayed scFv to Dutch mutant Aβ42; details: control wild type phage M13
# T2 construct: mutant Aβ42 (SynPep Corp., CA, USA); purchased SynPep Corp
# Description: (§1) Microtiter plates were coated with Aβ42 and blocked as described above, 10^10 of each phage clone were added, and after incubation for 1 h at 37° C., plates were washed with PBS/Tween. An anti-M13 monoclonal HRP (horseradish peroxidase) conjugate (Amersham Pharmacia Biotech, USA) diluted in PBS/1% BSA was then added to the plates followed by an incubation for 1 h 37° C. Plates were washed and the ABTS (2,2′-azino-bis(3-ethylbenzothiazoline-6-sulfonic acid) single solution (Zymed, San Francisco, Calif., USA) was added. The OD 405 nm readings were measured using Opsys MR Microplate Reader (DYNEX Technologies, Inc., Chantilly, Va., USA). An identical ELISA procedure was performed using Flemish (containing an A to G substitution at aa21; i.e. A21G) and Dutch (containing an E to Q substitution at aa22; E22Q) mutant Aβ42 (SynPep Corp., CA, USA).
# [6] = biological target: T3, Flemish (A21G) mutant Aβ42 (Homo sapiens, UniProt P05067, A692G); assay: ELISA binding of phage-displayed scFv to Flemish mutant Aβ42; details: control wild type phage M13
# T3 construct: mutant Aβ42 (SynPep Corp., CA, USA); purchased SynPep Corp
# Description: as §1
# Aβ1-28 = Aβ1-28 (Homo sapiens, UniProt P05067); assay: ELISA binding of phage-displayed scFv to Aβ1-28; details: control wild type phage M13
# human Aβ42 (wild-type) = biological target: T4, human Aβ42 (wild-type) (Homo sapiens, UniProt P05067); assay: ELISA binding of phage-displayed scFv / serum to Aβ42-coated wells; details: control wild type phage M13
# T4 construct: coated overnight with 2 μg/ml of wild-type Aβ42 (BACHEM Bioscience Inc); purchased BACHEM Bioscience Inc
# Description: One week after the fourth immunization, mouse sera were tested in ELISA for the presence of specific anti-Aβ42 antibodies. Briefly, a 96-well plate (Nunc, Roskilde, Denmark) was coated with 1 μg/ml of Aβ42 in phosphate buffer (pH 7.8) overnight at 4° C. The plate was washed with phosphate buffer containing 0.1% Tween-20 (PBS-Tween) and blocked with PBS containing 2% bovine serum albumin (PBS-BSA). After washing, mouse sera diluted in PBS-BSA 1% was added, and the plate was incubated for 1 h at 37° C. The plate was washed and goat anti-mouse IgG conjugated with HRP (Zymed, San Francisco, Calif., USA) was added. After incubation for 1 h at 37° C., the plate was washed and 2,2′-azino-bis-(3-ethyl-benzothiazoline-6-sulphonic acid (ABTS) single solution (Zymed) was added. The OD reading at 405 was registered using Opsys MR Microplate Reader (DYNEX Technologies, Chantilly, Va., USA).
# Fresh 2×YT without glucose but supplemented with ampicillin and kanamycin was added to each well, and plates were incubated overnight at 30° C. with shaking Microtiter plates (Nunc) were coated with Aβ and blocked as described above, supernatants from plates containing phage were added, and after incubation for 1 h at 37° C., plates were washed with PBS-Tween. […] The OD reading at 405 was registered using Opsys MR Microplate Reader (DYNEX Technologies). […]
# [7] = plates coated with peptide 10 μg/ml
# [8] = peptide in cyclic form, 40 μM with Aβ42 40 μM, 72 h
# [9] = peptide in linear form, 40 μM with Aβ42 40 μM, 72 h
molecule,measurement,setting,value
ASVRGWYVRSVFDPA [N44],effect of peptide alone on basal MTT reducing capacity,[1],Neither N44 nor C44 (either the linear or cyclic forms) alone altered basal MTT reducing capacity
"IWGCSGKLICTTAVP (not fully specified (bridges); also: cyclic, ring type not given here) [GM15, reference compound]",binding to Aβ42 in ELISA,Aβ42 [2]; [7],did not bind
"Aβ42: human amyloid-beta peptide, pre-aggregated, used as neurotoxic insult [reference compound]",decrease in mitochondrial activity,"[3]; Aβ42 40 μM alone, 72 h",24.3%
CC[C@H](C)C(=O)O[C@H]1C[C@@H](C)C=C2C=C[C@H](C)[C@H](CC[C@@H]3C[C@@H](O)CC(=O)O3)[C@H]21 [lovastatin],intracellular and extracellular levels of Aβ,[4],reduce
CASVRGWYVRSVFDPAC (cyclic or linear) [C44],inhibition of binding of Aβ42 to immobilized cyclic C44,Aβ42 [5],"inhibited, in a dose dependent manner"
same,effect of peptide alone on basal MTT reducing capacity,"[3]; peptide alone, without Aβ42",Neither N44 nor C44 (either the linear or cyclic forms) alone altered basal MTT reducing capacity
same,neuroprotective effect,[3]; peptide in cyclic form,53.6%
same,decrease in mitochondrial activity when co-incubated with Aβ42,[3]; [8],11.9%
same,protection against Aβ42 neurotoxicity,[3]; [8],showed protection
same,neuroprotective effect,[3]; peptide in linear form,69.3%
same,prevention of Aβ42 neurotoxicity,[3]; [9],significantly prevented
same,reduction in mitochondrial activity when co-incubated with Aβ42,[3]; [9],7.7%
same,binding to Aβ42 in ELISA,"Aβ42 [2]; cyclic peptide, S—S bond reduced with β-mercaptoethanol",abolished completely
same,binding to Aβ42 in ELISA,"Aβ42 [2]; linear form after spontaneous air oxidation, overnight agitation",restored
same,binding to Aβ42 in ELISA,Aβ42 [2]; peptide in cyclic form,recognized
same,binding to Aβ42 in ELISA,Aβ42 [2]; peptide in its linear form,weak recognition
"CADWRYRSVFGPVSVAC (disulfide 1-17 (inferred)) [Scr44, reference compound]","OD405, binding of biotinylated Aβ42 to coated peptide","Aβ42 [2]; peptide in cyclic form, negative control",0.25±0.03
same,binding to Aβ42 in ELISA,Aβ42 [2]; [7],did not bind
B1,binding to Dutch mutant Aβ42 in ELISA,Dutch (E22Q) mutant Aβ42,not statistically different from control phage M13
same,binding to Flemish mutant Aβ42 in ELISA,[6],bound
same,binding to Aβ1-28 in ELISA,Aβ1-28,not statistically different from control phage M13
same,binding to wild type Aβ42 in ELISA,human Aβ42 (wild-type),bound

# Reference: US8394380B2, “Compositions and methods for alzheimer's disease” (Primex Clinical Laboratories, Inc., priority 2004, dated 2013)
